Assay results reported in the Immune Epitope Database (IEDB).

Legend:
Assay in all cases: IEDB peptide-MHC binding, purified MHC/competitive/fluorescence; filed as Kd, often an IC50 or EC50 that approximates it; ≥ and ≤ were set here for values at or beyond the usual limits of such assays
Settings in all cases: source organism: Salmonella enterica subsp. enterica serovar Typhi
[1] = target: HLA-B*57:01
[2] = target: HLA-A*02:01
[3] = target: HLA-B*15:17
[4] = target: HLA-B*44:02
[5] = target: HLA-A*30:01
[6] = target: HLA-B*18:01
[7] = target: HLA-C*06:02
[8] = target: HLA-A*11:01
[9] = target: HLA-A*68:23

SVIDHIHYM
Kd [1]: 1530 nM | Kd [2]: 4.9 nM | Kd [3]: 50 nM | Kd [4]: ≥ 20000 nM | Kd [5]: ≥ 20000 nM | Kd [6]: ≥ 20000 nM | Kd [7]: 26 nM | Kd [8]: 71.7 nM | Kd [9]: 0.2 nM
